*: point of attachment. sulfate = O=S(=O)(O)*
How the values were obtained:
thrombin [1] = target: T1, thrombin (Homo sapiens, UniProt P00734); conditions: sulfated versus unsulfated hirudin; cited from earlier work
thrombin [2] = target: T1, thrombin; assay: chromogenic thrombin amidolytic activity assay; type: biochemical; conditions: tight-binding model, Morrison equation; inhibitors expressed in E. coli, sulfotyrosine biosynthesized; read-out: Ki, inhibition of thrombin activity
Method: FIG. 18: Inhibition constants (Ki) of all thrombin inhibitors used in this study: Ki+standard error were calculated based on a tight-binding model, using Morrison equation in Prism. Standard errors were calculated from n=3 independent samples.
To test the thrombin inhibiting activity of the wild type inhibitors and their sulfotyrosine-containing mutants, chromogenic thrombin amidolytic activity assays were performed in the presence of a range of concentrations of each inhibitor. […] Double sulfation of chimadanin at both Tyr28 and Tyr31 further improved its Ki to 0.1 nM, consistent with the madanin-1 study. […] This may be due to the fact that co-translational folding is more efficient than that achieved via chemical synthesis.

[3] = test system: tyrosine sulfation (sulfotyrosine-containing sfGFP production); assay: green fluorescent protein assay of tyrosine sulfotransferase activity; type: cell-based, Escherichia coli; conditions: BL21(DE3), pBad vector, sfGFP134TAG reporter, LB medium
Method: To explore the activity of these sulfotransferases towards tyrosine, a green fluorescent protein assay was used (Chen et al., 2018; Chen et al., 2019). […] The suppressor plasmid (pUltra-sulfotyrosine) was used to suppress the amber codon (Asp134TAG) within a sfGFP variant encoded by the pLei-sfGFP134TAG plasmid in the presence of sulfotyrosine. Expression of full-length sfGFP was carried out in LB medium for 16 hours in parallel with controls BL21(DE3) harboring pUltra-sulfotyrosine, pLei-sfGFP134TAG and pBad-Empty in the presence and absence of exogenously fed 1 mM sulfotyrosine.

B1: hirudin: thrombin inhibitor; tyrosine-sulfated form compared with unsulfated; SEQ ID NO: 109 in Table 1 (protein, listed as Hirudo medicinalis)
chain: MKKNIAFLLASMFVFSIATNAYAMRYTACTESGQNQCICEGNDVCGQGRNCQFDSSGKKCVEGEGTRKPQNEGQHDFDPIPEEYLSHHHHHH
modifications: tyrosine sulfation
In the case of B1, the “increase of affinity for thrombin by tyrosine sulfation” value (thrombin [1]) is given as “more than 10 fold”.

B2: wildtype chimadanin: thrombin inhibitor from the salivary gland of Haemaphysalis longicornis, His-tagged, expressed in E. coli; Table 1 sequence names seem swapped (protein)
chain: MQPKEKTKGVEVEGNPATLISARQMDVSYDEYEDNGPDVIPGEPAKPRGGPKNGAASGKFDQIPDFSSESHHHHHHH
B2 showed a Ki (thrombin [2]) of 12.9 nM.

B3: Madanin-1 sulfated at both Tyr32 and Tyr35 (protein)
chain: MYPERDSAKEGNQEQERALHVKVQKRTDGDADY(sulfate)DEY(sulfate)EEDGTTPTPDPTAPTAKPRLRGNKPHHHHHH
Work on B3 yielded a Ki (thrombin [2]) of 0.5 nM.

B4: A0A091VQH7: putative sulfotransferase from Nipponia nippon, SEQ ID NO: 1 (protein)
chain: IALDKMEDLSLKETVVSRAEICEVEGIPFTKPICSTWDQVWKFKARPDDLLIATYTKAGTTWTQEIVDMIQQNGDVEKCRRATTYRRHPFLEWSIQEPPAASYSGLELAEAMPSPRTIKTHLPVQLLPPSFWEQNCKIIYVARNAKDNLVSYYHFHRMSKEMPDPGTWEEFMEKFMTGKVLWGSWYDHVKGWWKAKDRHRILYLFYEDMKENPKQEIQKILKFLEKDVNQEVLNKILHNTSFEIMKDNPMTNYTTEFQGIMDHSISPFMRKGVVGDWKNYFTVAQNEKFDEDYKKKMADTSLVFRTEL
modifications: Nipponia nippon
In the case of B4, the “increase in fluorescence compared to cells not given exogenous sulfotyrosine” value [3] is reported as 2.5 fold.
